Values quoted from earlier work as cited in patent US20200069786A1, “COMPOSITION AND PROCESS FOR PREPARING VACCINE” (TREOS BIO ZRT., priority 2018, published 2020).
Like-named read-outs stand apart in the source and are kept apart here.

System: TSA
[1] = TSA expression rate in BLADDER cancer
[2] = TSA expression rate in Cervical cancer
[3] = TSA expression rate in PROSTATE cancer
[4] = TSA expression rate in HEAD and NECK
[5] = TSA expression rate in MELANOMA

| Molecule | TSA Expression Rate (ER) (BRAIN) [%] | TSA Expression Rate (ER) (BREAST) [%] | TSA Expression Rate (ER) (LUNG) [%] | TSA Expression Rate (ER) (OVARIAN) [%] | TSA Expression Rate (ER) (THYROID) [%] | Expression Rate (ER) % [1] [%] | Expression Rate (ER) % (TSA expression rate in CRC) [%] | Expression Rate (ER) % [2] [%] | Expression Rate (ER) % (TSA expression rate in Kidney) [%] | Expression Rate (ER) % [3] [%] | TSA Expression Rate (ER) (HCC) [%] | Expression Rate (ER) % [4] [%] | Expression Rate (ER) % [5] [%] | Expression Rate (ER) % (TSA expression rate in Esophageal) [%] | Expression Rate (ER) % (TSA expression rate in LEUKEMIAS) [%] |
| --- | --- | --- | --- | --- | --- | --- | --- | --- | --- | --- | --- | --- | --- | --- | --- |
| ACTL8 (protein, UniProt Q9H568 1-366, looked up) Actin-like protein 8: MAARTVIIDHGSGFLKAGTAGWNEPQMVFPNIVNYLPCKENPGPSYARRRVSLGIDICHPDTFSYPIERGRILNWEGVQYLWSFVLENHRREQEVPPVIITETPLREPADRKKMLEILFELLHVPSVLLADQLQMSLYASGLLTGVVVDSGYGLTRVQPFHQGRPLPASGKTLEFAGQDLSAYLLKSLFKEDCDRRCLFQLETVAVTQMNKCYVPQNLGEALDFRERQQSALDESNTYQLPDGSRVELTPMQRVAPEMFFSPQVFEQPGPSIPRAIVESVESCEISLRPLLVSHVMACGGNTLYPGFTKRLFRELMGDHVSSTKATVWEGSNRNFSVWLGASVVAHLSTYQSEWMSREEYGEHMRM | 54 |  |  |  |  |  |  |  |  |  |  |  |  |  |  |
| PIWIL2 (protein, UniProt Q8TC59 1-973, looked up) Piwi-like protein 2: MDPFRPSFRGQSPIHPSQCQAVRMPGCWPQASKPLDPALGRGAPAGRGHVFGKPEEPSTQRGPAQRESVGLVSMFRGLGIETVSKTPLKREMLPSGRGILGRGLSANLVRKDREELSPTFWDPKVLAAGDSKMAETSVGWSRTLGRGSSDASLLPLGRAAGGISREVDKPPCTFSTPSRGPPQLSSPPALPQSPLHSPDRPLVLTVEHKEKELIVKQGSKGTPQSLGLNLVKIQCHNEAVYQYHVTFSPNVECKSMRFGMLKDHQAVTGNVTAFDGSILYLPVKLQQVLELKSQRKTDSAEISIKIQMTKILEPCSDLCIPFYNVVFRRVMKLLDMKLVGRNFYDPTSAMVLQQHRLQIWPGYAASIRRTDGGLFLLADVSHKVIRNDCVLDVMHAIYQQNKEHFQDECTKLLVGNIVITRYNNRTYRIDDVDWNKTPKDSFTMSDGKEITFLEYYSKNYGITVKEEDQPLLIHRPSERQDNHGMLLKGEILLLPELSFMTGIPEKMKKDFRAMKDLAQQINLSPKQHHSALECLLQRIAKNEAATNELMRWGLRLQKDVHKIEGRVLPMERINLKNTSFITSQELNWVKEVTRDPSILTIPMHFWALFYPKRAMDQARELVNMLEKIAGPIGMRMSPPAWVELKDDRIETYVRTIQSTLGAEGKIQMVVCIIMGPRDDLYGAIKKLCCVQSPVPSQVVNVRTIGQPTRLRSVAQKILLQINCKLGGELWGVDIPLKQLMVIGMDVYHDPSRGMRSVVGFVASINLTLTKWYSRVVFQMPHQEIVDSLKLCLVGSLKKFYEVNHCLPEKIVVYRDGVSDGQLKTVANYEIPQLQKCFEAFENYQPKMVVFVVQKKISTNLYLAAPQNFVTPTPGTVVDHTITSCEWVDFYLLAHHVRQGCGIPTHYVCVLNTANLSPDHMQRLTFKLCHMYWNWPGTIRVPAPCKYAHKLAFLSGHILHHEPAIQLCENLFFL | 64 | 94 | 66 | 61 | 88 | 82 | 80 | 100 | 49 | 100 |  |  |  |  |  |
| MAGE-A11 (protein, UniProt P43364 1-429, looked up) Melanoma-associated antigen 11: METQFRRGGLGCSPASIKRKKKREDSGDFGLQVSTMFSEDDFQSTERAPYGPQLQWSQDLPRVQVFREQANLEDRSPRRTQRITGGEQVLWGPITQIFPTVRPADLTRVIMPLEQRSQHCKPEEGLQAQEEDLGLVGAQALQAEEQEAAFFSSTLNVGTLEELPAAESPSPPQSPQEESFSPTAMDAIFGSLSDEGSGSQEKEGPSTSPDLIDPESFSQDILHDKIIDLVHLLLRKYRVKGLITKAEMLGSVIKNYEDYFPEIFREASVCMQLLFGIDVKEVDPTSHSYVLVTSLNLSYDGIQCNEQSMPKSGLLIIVLGVIFMEGNCIPEEVMWEVLSIMGVYAGREHFLFGEPKRLLTQNWVQEKYLVYRQVPGTDPACYEFLWGPRAHAETSKMKVLEYIANANGRDPTSYPSLYEDALREEGEGV |  | 59 |  |  |  |  |  |  |  |  | 36 | 37 | 54 |  |  |
| PEPP2 (protein, UniProt Q9BQY4 1-288, looked up) Rhox homeobox family member 2: MEPPDQCSQYMTSLLSPAVDDEKELQDMNAMVLSLTEEVKEEEEDAQPEPEQGTAAGEKLKSAGAQGGEEKDGGGEEKDGGGAGVPGHLWEGDLEGTSGSDGNVEDSDQSEKEPGQQYSRPQGAVGGLEPGNAQQPNVHAFTPLQLQELERIFQREQFPSEFLRRRLARSMNVTELAVQIWFENRRAKWRRHQRALMARNMLPFMAVGQPVMVTAAEAITAPLFISGMRDDYFWDHSHSSSLCFPMPPFPPPSLPLPLMLLPPMPPAGQAEFGPFPFVIVPSFTFPNV |  | 60 |  |  |  |  |  |  |  |  |  |  |  |  |  |
| HAGE (protein, UniProt Q9NXZ2 1-648, looked up) Probable ATP-dependent RNA …: MSHHGGAPKASTWVVASRRSSTVSRAPERRPAEELNRTGPEGYSVGRGGRWRGTSRPPEAVAAGHEELPLCFALKSHFVGAVIGRGGSKIKNIQSTTNTTIQIIQEQPESLVKIFGSKAMQTKAKAVIDNFVKKLEENYNSECGIDTAFQPSVGKDGSTDNNVVAGDRPLIDWDQIREEGLKWQKTKWADLPPIKKNFYKESTATSAMSKVEADSWRKENFNITWDDLKDGEKRPIPNPTCTFDDAFQCYPEVMENIKKAGFQKPTPIQSQAWPIVLQGIDLIGVAQTGTGKTLCYLMPGFIHLVLQPSLKGQRNRPGMLVLTPTRELALQVEGECCKYSYKGLRSVCVYGGGNRDEQIEELKKGVDIIIATPGRLNDLQMSNFVNLKNITYLVLDEADKMLDMGFEPQIMKILLDVRPDRQTVMTSATWPHSVHRLAQSYLKEPMIVYVGTLDLVAVSSVKQNIIVTTEEEKWSHMQTFLQSMSSTDKVIVFVSRKAVADHLSSDLILGNISVESLHGDREQRDREKALENFKTGKVRILIATDLASRGLDVHDVTHVYNFDFPRNIEEYVHRIGRTGRAGRTGVSITTLTRNDWRVASELINILERANQSIPEELVSMAERFKAHQQKREMERKMERPQGRPKKFH | 38 | 14 | 32 |  | 20 | 24 | 15 |  | 6 | 22 |  | 20 | 17 | 27 |  |
| XAGE-3 (protein, UniProt Q8WTP9 1-111, looked up) X antigen family member 3: MIWRGRSTYRPRPRRSVPPPELIGPMLEPGDEEPQQEEPPTESRDPAPGQEREEDQGAAETQVPDLEADLQELSQSKTGGECGNGPDDQGKILPKSEQFKMPEGGDRQPQV | 60 |  |  |  |  |  |  |  |  |  |  | 12 | 0 |  |  |
| SPAG9 (protein, UniProt O60271 1-1321, looked up) C-Jun-amino-terminal …: MELEDGVVYQEEPGGSGAVMSERVSGLAGSIYREFERLIGRYDEEVVKELMPLVVAVLENLDSVFAQDQEHQVELELLRDDNEQLITQYEREKALRKHAEEKFIEFEDSQEQEKKDLQTRVESLESQTRQLELKAKNYADQISRLEEREAELKKEYNALHQRHTEMIHNYMEHLERTKLHQLSGSDQLESTAHSRIRKERPISLGIFPLPAGDGLLTPDAQKGGETPGSEQWKFQELSQPRSHTSLKVSNSPEPQKAVEQEDELSDVSQGGSKATTPASTANSDVATIPTDTPLKEENEGFVKVTDAPNKSEISKHIEVQVAQETRNVSTGSAENEEKSEVQAIIESTPELDMDKDLSGYKGSSTPTKGIENKAFDRNTESLFEELSSAGSGLIGDVDEGADLLGMGREVENLILENTQLLETKNALNIVKNDLIAKVDELTCEKDVLQGELEAVKQAKLKLEEKNRELEEELRKARAEAEDARQKAKDDDDSDIPTAQRKRFTRVEMARVLMERNQYKERLMELQEAVRWTEMIRASRENPAMQEKKRSSIWQFFSRLFSSSSNTTKKPEPPVNLKYNAPTSHVTPSVKKRSSTLSQLPGDKSKAFDFLSEETEASLASRREQKREQYRQVKAHVQKEDGRVQAFGWSLPQKYKQVTNGQGENKMKNLPVPVYLRPLDEKDTSMKLWCAVGVNLSGGKTRDGGSVVGASVFYKDVAGLDTEGSKQRSASQSSLDKLDQELKEQQKELKNQEELSSLVWICTSTHSATKVLIIDAVQPGNILDSFTVCNSHVLCIASVPGARETDYPAGEDLSESGQVDKASLCGSMTSNSSAETDSLLGGITVVGCSAEGVTGAATSPSTNGASPVMDKPPEMEAENSEVDENVPTAEEATEATEGNAGSAEDTVDISQTGVYTEHVFTDPLGVQIPEDLSPVYQSSNDSDAYKDQISVLPNEQDLVREEAQKMSSLLPTMWLGAQNGCLYVHSSVAQWRKCLHSIKLKDSILSIVHVKGIVLVALADGTLAIFHRGVDGQWDLSNYHLLDLGRPHHSIRCMTVVHDKVWCGYRNKIYVVQPKAMKIEKSFDAHPRKESQVRQLAWVGDGVWVSIRLDSTLRLYHAHTYQHLQDVDIEPYVSKMLGTGKLGFSFVRITALMVSCNRLWVGTGNGVIISIPLTETNKTSGVPGNRPGSVIRVYGDENSDKVTPGTFIPYCSMAHAQLCFHGHRDAVKFFVAVPGQVISPQSSSSGTDLTGDKAGPSAQEPGSQTPLKSMLVISGGEGYIDFRMGDEGGESELLGEDLPLEPSVTKAERSHLIVWQVMYGNE | 60 | 88 | 56 | 90 | 78 | 81 | 71 | 82 | 88 |  | 52 |  |  |  | 100 |
| GAGE-1 (protein, UniProt P0DTW1 1-117, looked up) G antigen 1: MSWRGRSTYYWPRPRRYVQPPEMIGPMRPEQFSDEVEPATPEEGEPATQRQDPAAAQEGEDEGASAGQGPKPEADSQEQGHPQTGCECEDGPDGQEMDPPNPEEVKTPEEGEGQSQC | 42 |  |  |  |  |  |  |  |  |  |  | 39 |  |  |  |
